# From EP4745153A1, “GLP-1, GIP AND GCG RECEPTOR […] USE THEREOF” (Jiangsu Hengrui Pharmaceuticals Co., Ltd., priority 2023, dated 2025)
# Where two headings read alike, the source gives them in different places. Starred links: 1 amine or outer side, 2 acyl side, 3 side chain; linkers in the order of their positions; H or OH if unused. Non-standard residues stand in square brackets, D forms with d. Groups on a side chain read outwards from the residue. No end group written: not given here. *: point of attachment. C20 diacid = O=C(O)CCCCCCCCCCCCCCCCCCC(=O)*; γGlu = O=C(O)[C@H](CCC(=O)[*:2])N[*:1]; αMeL = CC(C)C[C@](C)(N)C(=O)O; Iva = CC[C@](C)(N)C(=O)O; Ac4c = NC1(C(=O)O)CCC1; AEEA = NCCOCCOCC(=O)O; Ac3c = NC1(C(=O)O)CC1; Aib = CC(C)(N)C(=O)O
# T1: human glucose-dependent insulinotropic polypeptide receptor (human, UniProt P48546 22-466)
# T1 sequence (looked up): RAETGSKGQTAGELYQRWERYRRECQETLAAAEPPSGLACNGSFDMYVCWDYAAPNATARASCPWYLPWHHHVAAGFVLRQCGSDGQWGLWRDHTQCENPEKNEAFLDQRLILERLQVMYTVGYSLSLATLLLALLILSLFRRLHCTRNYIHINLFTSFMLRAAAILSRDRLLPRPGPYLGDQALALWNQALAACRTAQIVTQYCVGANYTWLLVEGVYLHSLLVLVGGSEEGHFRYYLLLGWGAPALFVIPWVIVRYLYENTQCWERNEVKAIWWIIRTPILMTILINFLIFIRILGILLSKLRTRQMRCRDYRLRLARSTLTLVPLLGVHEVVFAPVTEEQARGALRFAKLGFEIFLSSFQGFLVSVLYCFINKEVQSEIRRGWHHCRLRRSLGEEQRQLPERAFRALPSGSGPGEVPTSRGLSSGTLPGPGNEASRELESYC
# B1: Compound No. 0150 (peptide)
# peptide: H[Aib]HGTFTSDYSILLEK([AEEA-AEEA-γGlu-C20 diacid])QAA[Ac4c]EFVEWLLA[dE]GPSSGAPPPS-NH2
# modifications: N-terminus assumed
# SMILES: CC[C@H](C)[C@H](NC(=O)[C@H](CO)NC(=O)[C@H](Cc1ccc(O)cc1)NC(=O)[C@H](CC(=O)O)NC(=O)[C@H](CO)NC(=O)[C@@H](NC(=O)[C@H](Cc1ccccc1)NC(=O)[C@@H](NC(=O)CNC(=O)[C@H](Cc1c[nH]cn1)NC(=O)C(C)(C)NC(=O)[C@@H](N)Cc1c[nH]cn1)[C@@H](C)O)[C@@H](C)O)C(=O)N[C@@H](CC(C)C)C(=O)N[C@@H](CC(C)C)C(=O)N[C@@H](CCC(=O)O)C(=O)N[C@@H](CCCCNC(=O)COCCOCCNC(=O)COCCOCCNC(=O)CC[C@H](NC(=O)CCCCCCCCCCCCCCCCCCC(=O)O)C(=O)O)C(=O)N[C@@H](CCC(N)=O)C(=O)N[C@@H](C)C(=O)N[C@@H](C)C(=O)NC1(C(=O)N[C@@H](CCC(=O)O)C(=O)N[C@@H](Cc2ccccc2)C(=O)N[C@H](C(=O)N[C@@H](CCC(=O)O)C(=O)N[C@@H](Cc2c[nH]c3ccccc23)C(=O)N[C@@H](CC(C)C)C(=O)N[C@@H](CC(C)C)C(=O)N[C@@H](C)C(=O)N[C@H](CCC(=O)O)C(=O)NCC(=O)N2CCC[C@H]2C(=O)N[C@@H](CO)C(=O)N[C@@H](CO)C(=O)NCC(=O)N[C@@H](C)C(=O)N2CCC[C@H]2C(=O)N2CCC[C@H]2C(=O)N2CCC[C@H]2C(=O)N[C@@H](CO)C(N)=O)C(C)C)CCC1
# B2: Compound No. 0156 (peptide)
# peptide: H[Aib]QGTFTSDYSILLEK([AEEA-AEEA-γGlu-C20 diacid])KAA[Aib]EFVEWLLAGGPSSGAPPPS-NH2
# B3: Compound No. 0148 (peptide)
# peptide: H[Aib]HGTFTSDLSILLEK([AEEA-AEEA-γGlu-C20 diacid])QAA[Ac3c]EFVEWLLA[dE]GPSSGAPPPS-NH2
# modifications: N-terminus assumed
# SMILES: CC[C@H](C)[C@H](NC(=O)[C@H](CO)NC(=O)[C@H](CC(C)C)NC(=O)[C@H](CC(=O)O)NC(=O)[C@H](CO)NC(=O)[C@@H](NC(=O)[C@H](Cc1ccccc1)NC(=O)[C@@H](NC(=O)CNC(=O)[C@H](Cc1c[nH]cn1)NC(=O)C(C)(C)NC(=O)[C@@H](N)Cc1c[nH]cn1)[C@@H](C)O)[C@@H](C)O)C(=O)N[C@@H](CC(C)C)C(=O)N[C@@H](CC(C)C)C(=O)N[C@@H](CCC(=O)O)C(=O)N[C@@H](CCCCNC(=O)COCCOCCNC(=O)COCCOCCNC(=O)CC[C@H](NC(=O)CCCCCCCCCCCCCCCCCCC(=O)O)C(=O)O)C(=O)N[C@@H](CCC(N)=O)C(=O)N[C@@H](C)C(=O)N[C@@H](C)C(=O)NC1(C(=O)N[C@@H](CCC(=O)O)C(=O)N[C@@H](Cc2ccccc2)C(=O)N[C@H](C(=O)N[C@@H](CCC(=O)O)C(=O)N[C@@H](Cc2c[nH]c3ccccc23)C(=O)N[C@@H](CC(C)C)C(=O)N[C@@H](CC(C)C)C(=O)N[C@@H](C)C(=O)N[C@H](CCC(=O)O)C(=O)NCC(=O)N2CCC[C@H]2C(=O)N[C@@H](CO)C(=O)N[C@@H](CO)C(=O)NCC(=O)N[C@@H](C)C(=O)N2CCC[C@H]2C(=O)N2CCC[C@H]2C(=O)N2CCC[C@H]2C(=O)N[C@@H](CO)C(N)=O)C(C)C)CC1
# B4: Compound No. 0157 (peptide)
# peptide: H[Aib]QGTFTSDYSI[αMeL]LEK([AEEA-AEEA-γGlu-C20 diacid])KAA[Aib]EFVEWLLAGGPSSGAPPPS-NH2
# B5: Compound No. 0149 (peptide)
# peptide: H[Aib]HGTFTSDYSILLEK([AEEA-AEEA-γGlu-C20 diacid])QAA[Ac3c]EFVEWLLA[dE]GPSSGAPPPS-NH2
# modifications: N-terminus assumed
# SMILES: CC[C@H](C)[C@H](NC(=O)[C@H](CO)NC(=O)[C@H](Cc1ccc(O)cc1)NC(=O)[C@H](CC(=O)O)NC(=O)[C@H](CO)NC(=O)[C@@H](NC(=O)[C@H](Cc1ccccc1)NC(=O)[C@@H](NC(=O)CNC(=O)[C@H](Cc1c[nH]cn1)NC(=O)C(C)(C)NC(=O)[C@@H](N)Cc1c[nH]cn1)[C@@H](C)O)[C@@H](C)O)C(=O)N[C@@H](CC(C)C)C(=O)N[C@@H](CC(C)C)C(=O)N[C@@H](CCC(=O)O)C(=O)N[C@@H](CCCCNC(=O)COCCOCCNC(=O)COCCOCCNC(=O)CC[C@H](NC(=O)CCCCCCCCCCCCCCCCCCC(=O)O)C(=O)O)C(=O)N[C@@H](CCC(N)=O)C(=O)N[C@@H](C)C(=O)N[C@@H](C)C(=O)NC1(C(=O)N[C@@H](CCC(=O)O)C(=O)N[C@@H](Cc2ccccc2)C(=O)N[C@H](C(=O)N[C@@H](CCC(=O)O)C(=O)N[C@@H](Cc2c[nH]c3ccccc23)C(=O)N[C@@H](CC(C)C)C(=O)N[C@@H](CC(C)C)C(=O)N[C@@H](C)C(=O)N[C@H](CCC(=O)O)C(=O)NCC(=O)N2CCC[C@H]2C(=O)N[C@@H](CO)C(=O)N[C@@H](CO)C(=O)NCC(=O)N[C@@H](C)C(=O)N2CCC[C@H]2C(=O)N2CCC[C@H]2C(=O)N2CCC[C@H]2C(=O)N[C@@H](CO)C(N)=O)C(C)C)CC1
# B6: Compound No. 0107 (peptide)
# peptide: H[Aib]HGTFTSDYSK[Aib]LEK([AEEA-AEEA-γGlu-C20 diacid])KAAQEFVEWLLAGGPSSGAPPPS-NH2
# B7: Compound No. 0136 (peptide)
# peptide: H[Aib]HGTFTSDLSILLEK([AEEA-AEEA-γGlu-C20 diacid])KAA[Iva]EFVEWLLAGGPSSGAPPPS-NH2
# B8: Compound No. 0151 (peptide)
# peptide: H[Aib]HGTFTSDYSILLEK([AEEA-AEEA-γGlu-C20 diacid])KAAQEFVEWLLA[dE]GPSSGAPPPS-NH2
# modifications: N-terminus assumed
# SMILES: CC[C@H](C)[C@H](NC(=O)[C@H](CO)NC(=O)[C@H](Cc1ccc(O)cc1)NC(=O)[C@H](CC(=O)O)NC(=O)[C@H](CO)NC(=O)[C@@H](NC(=O)[C@H](Cc1ccccc1)NC(=O)[C@@H](NC(=O)CNC(=O)[C@H](Cc1c[nH]cn1)NC(=O)C(C)(C)NC(=O)[C@@H](N)Cc1c[nH]cn1)[C@@H](C)O)[C@@H](C)O)C(=O)N[C@@H](CC(C)C)C(=O)N[C@@H](CC(C)C)C(=O)N[C@@H](CCC(=O)O)C(=O)N[C@@H](CCCCNC(=O)COCCOCCNC(=O)COCCOCCNC(=O)CC[C@H](NC(=O)CCCCCCCCCCCCCCCCCCC(=O)O)C(=O)O)C(=O)N[C@@H](CCCCN)C(=O)N[C@@H](C)C(=O)N[C@@H](C)C(=O)N[C@@H](CCC(N)=O)C(=O)N[C@@H](CCC(=O)O)C(=O)N[C@@H](Cc1ccccc1)C(=O)N[C@H](C(=O)N[C@@H](CCC(=O)O)C(=O)N[C@@H](Cc1c[nH]c2ccccc12)C(=O)N[C@@H](CC(C)C)C(=O)N[C@@H](CC(C)C)C(=O)N[C@@H](C)C(=O)N[C@H](CCC(=O)O)C(=O)NCC(=O)N1CCC[C@H]1C(=O)N[C@@H](CO)C(=O)N[C@@H](CO)C(=O)NCC(=O)N[C@@H](C)C(=O)N1CCC[C@H]1C(=O)N1CCC[C@H]1C(=O)N1CCC[C@H]1C(=O)N[C@@H](CO)C(N)=O)C(C)C
# Tests used:
# Assay in all cases: cell-based or functional assay
# [1] = molecular target: T2, human glucagon-like peptide-1 receptor (human, UniProt P43220 24-463)
# [2] = molecular target: T1, human glucose-dependent insulinotropic …
# human glucagon receptor [3] = molecular target: T3, human glucagon receptor (human, UniProt P47871 26-477)
# [4] = molecular target: T1, human glucose-dependent insulinotropic …; remark: listed apart in the source
# human glucagon receptor [5] = molecular target: T3, human glucagon receptor; remark: listed apart in the source
# [6] = molecular target: T2, human glucagon-like peptide-1 receptor; remark: listed apart in the source
# human glucagon receptor [7] = molecular target: T3, human glucagon receptor; remark: listed apart in the source
# [8] = molecular target: T1, human glucose-dependent insulinotropic …; remark: listed apart in the source
# human glucagon receptor [9] = molecular target: T3, human glucagon receptor; remark: listed apart in the source
# T3 sequence (P47871 26-477): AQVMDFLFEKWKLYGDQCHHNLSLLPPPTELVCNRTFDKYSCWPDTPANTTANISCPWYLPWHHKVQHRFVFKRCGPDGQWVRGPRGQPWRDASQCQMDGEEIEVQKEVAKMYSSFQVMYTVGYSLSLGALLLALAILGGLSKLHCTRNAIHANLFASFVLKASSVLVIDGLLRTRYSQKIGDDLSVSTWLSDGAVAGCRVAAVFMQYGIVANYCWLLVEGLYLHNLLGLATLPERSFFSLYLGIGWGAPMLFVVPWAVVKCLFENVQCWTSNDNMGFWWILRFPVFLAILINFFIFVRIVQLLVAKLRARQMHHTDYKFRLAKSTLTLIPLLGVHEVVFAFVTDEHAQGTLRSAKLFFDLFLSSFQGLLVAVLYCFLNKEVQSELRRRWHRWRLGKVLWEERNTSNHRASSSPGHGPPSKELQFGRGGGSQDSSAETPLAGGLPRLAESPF
Binder,Activity against human GLP-1R (EC50 nM) [1] [nM],Activity against human GIPR (EC50 nM) [2] [nM],Activity against human GCGR (EC50 nM) (human glucagon receptor [3]) [nM],other results
B1,0.076,0.002,0.076,
B2,,,,Activity against human GIPR (EC50 nM) [4]: 0.019 nM; Activity against human GCGR (EC50 nM) (human glucagon receptor [5]): 0.566 nM
B3,0.06,0.006,0.549,
B4,,,,Activity against human GIPR (EC50 nM) [4]: 0.008 nM; Activity against human GCGR (EC50 nM) (human glucagon receptor [5]): 1.33 nM
B5,0.071,0.004,0.301,
B6,,,,Activity against human GLP-1R (EC50 nM) [6]: 0.016 nM; Activity against human GCGR (EC50 nM) (human glucagon receptor [7]): 0.274 nM
B7,,,,Activity against human GIPR (EC50 nM) [8]: 0.001 nM; Activity against human GCGR (EC50 nM) (human glucagon receptor [9]): 0.039 nM
B8,0.037,0.004,0.055,
